Where two headings read alike, the source gives them in different places.

Usually stoichiometry N stands for the number of molecules, sites or subunits per partner or assembly.

Assay [1] deals with MA2561 (AmzR, Archaeal Metabolite-sensing Zipper-like Regulator) of Methanosarcina acetivorans (Methanosarcina acetivorans). The experiment in a line: non-reducing SDS-PAGE.
Assay [2] shares this target. Briefly: non-reducing SDS-PAGE. This is another data set of the same source.

For the substance “MA2561 (AmzR, Archaeal Metabolite-sensing Zipper-like Regulator) of Methanosarcina acetivorans (natural protein)”, the values for the stoichiometry N in assay [1] and in assay [2] were 2 and 4, respectively.
